Data: patent publication US6753151B1, “Interactions of Ku polypeptides and applications thereof” (Kudos Pharmaceuticals Limited, priority 1999, dated 2004)

Key:
[1] = target: T1, full length Ku70 (Homo sapiens, UniProt P12956); assay: GST pull-down of Ku70 from biotinylated bacterial extract by GST-Ku80 derivatives; assay type: binding; settings: GST-fusion on glutathione agarose beads; biotinylated bacterial extract containing Ku70; seven NETN washes; streptavidin-HRP blot
T1 construct: incubated with biotinylated bacterial cell extracts containing full length Ku70; made in house; host or cells: E. coli BL21 pLysS
Experimental: Full length Ku70 and Ku80 were cloned in frame with the glutathione binding domain of human glutathione S-transferase (GST) by sub-cloning into pGEX2TKP (a derivative of […] by Pharmacia). Deletion mutants of Ku70 and Ku80 were cloned by Pfu polymerase amplification and cloning into pGEX2TKP. Expression from all pGEX2TKP constructs was carried out in either DH5α or DS941 strains of E. coli. Bacterial cell extracts were produced by sonication in Phosphate-buffered saline (PBS; 138 mM NaCl, 3 mM KCl, 10 mM Phosphate buffer pH 7.4) containing 1% Triton-X100 (Sigma) and protease inhibitor tablets (Boehringer). GST-fusion proteins were purified by passing bacterial lysates over Glutathione Agarose beads (Pharmacia) and washing extensively in PBS containing 1% Triton-X100 and then in PBS alone. The beads/proteins were stored at −80° C. prior to use. […]
(§1) In a complementary approach to the yeast 2-hybrid technique, the inventors used a “pull-down” assay to detect interactions between recombinant deletion derivatives of the two Ku subunits. […] Interacting proteins were detected by probing these western blots with streptavidin that was conjugated to horse radish peroxidase (HRP). […]
The inventors tested a range of Ku80 deletion derivatives expressed as GST-fusions for their ability to interact with full-length Ku70. […]

[2] = target: T2, full length Ku80 (Homo sapiens, UniProt P13010); assay: GST pull-down of Ku80 from biotinylated bacterial extract by GST-Ku70 derivatives; assay type: binding; settings: GST-fusion on glutathione agarose beads, biotinylated bacterial extract containing Ku80, seven NETN washes, streptavidin-HRP blot
T2 construct: incubated with biotinylated bacterial cell extracts containing full length Ku80; made in house; host or cells: E. coli BL21 pLysS
Experimental: Full length Ku70 and Ku80 were cloned in frame with the glutathione binding domain of human glutathione S-transferase (GST) by sub-cloning into pGEX2TKP (a derivative of […] by Pharmacia). Deletion mutants of Ku70 and Ku80 were cloned by Pfu polymerase amplification and cloning into pGEX2TKP. Expression from all pGEX2TKP constructs was carried out in either DH5α or DS941 strains of E. coli. Bacterial cell extracts were produced by sonication in Phosphate-buffered saline (PBS; 138 mM NaCl, 3 mM KCl, 10 mM Phosphate buffer pH 7.4) containing 1% Triton-X100 (Sigma) and protease inhibitor tablets (Boehringer). GST-fusion proteins were purified by passing bacterial lysates over Glutathione Agarose beads (Pharmacia) and washing extensively in PBS containing 1% Triton-X100 and then in PBS alone. The beads/proteins were stored at −80° C. prior to use.
Ku70 and Ku80 were cloned into pET30a (Novagen) to generate a N-terminal hexa-Histidine tag and expressed at low levels in E. coli (BL21 pLysS). […]
as §1

T2 sequence (P13010 whole entry, the tested form may be a part): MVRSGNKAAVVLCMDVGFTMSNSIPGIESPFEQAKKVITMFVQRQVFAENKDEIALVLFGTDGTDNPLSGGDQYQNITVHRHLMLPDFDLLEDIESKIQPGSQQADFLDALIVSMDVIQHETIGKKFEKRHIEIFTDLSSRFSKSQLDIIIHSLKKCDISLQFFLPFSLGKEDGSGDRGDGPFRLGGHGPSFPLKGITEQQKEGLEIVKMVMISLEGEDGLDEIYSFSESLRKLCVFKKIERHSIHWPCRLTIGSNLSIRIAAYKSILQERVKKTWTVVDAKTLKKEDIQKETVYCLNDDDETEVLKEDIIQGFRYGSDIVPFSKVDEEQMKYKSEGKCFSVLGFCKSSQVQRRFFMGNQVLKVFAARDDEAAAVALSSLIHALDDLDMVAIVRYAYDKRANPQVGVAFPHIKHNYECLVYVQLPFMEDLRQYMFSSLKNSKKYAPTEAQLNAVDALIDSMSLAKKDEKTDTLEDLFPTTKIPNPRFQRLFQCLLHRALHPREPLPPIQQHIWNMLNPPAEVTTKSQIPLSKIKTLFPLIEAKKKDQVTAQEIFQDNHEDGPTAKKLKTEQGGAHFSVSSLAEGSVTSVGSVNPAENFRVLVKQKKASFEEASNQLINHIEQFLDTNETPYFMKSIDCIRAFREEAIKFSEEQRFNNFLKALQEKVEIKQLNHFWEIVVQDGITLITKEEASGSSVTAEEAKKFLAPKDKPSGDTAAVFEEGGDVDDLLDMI
T1 sequence (P12956 whole entry, the tested form may be a part): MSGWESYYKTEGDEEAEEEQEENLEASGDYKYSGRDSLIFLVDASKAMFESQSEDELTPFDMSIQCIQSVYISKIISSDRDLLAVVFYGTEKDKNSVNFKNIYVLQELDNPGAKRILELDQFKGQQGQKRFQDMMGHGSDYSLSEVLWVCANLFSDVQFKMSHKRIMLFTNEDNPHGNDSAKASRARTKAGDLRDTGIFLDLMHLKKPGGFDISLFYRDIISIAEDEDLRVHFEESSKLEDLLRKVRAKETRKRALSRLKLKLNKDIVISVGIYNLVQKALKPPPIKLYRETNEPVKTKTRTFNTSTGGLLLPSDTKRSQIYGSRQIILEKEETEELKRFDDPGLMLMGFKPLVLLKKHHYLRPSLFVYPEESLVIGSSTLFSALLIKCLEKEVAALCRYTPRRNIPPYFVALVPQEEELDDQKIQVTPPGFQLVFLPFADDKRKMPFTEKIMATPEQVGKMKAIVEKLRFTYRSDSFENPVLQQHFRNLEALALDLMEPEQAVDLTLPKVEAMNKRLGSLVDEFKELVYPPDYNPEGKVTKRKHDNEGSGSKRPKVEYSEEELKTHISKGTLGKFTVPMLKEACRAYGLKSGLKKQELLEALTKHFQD

Row | interaction with full-length Ku80 ([2]; listed as Full-length Ku70) | Substance | interaction with full-length Ku70 [1] | interaction with full-length Ku80 [2]
1 |  | GST-Ku80: full length human Ku80 fused to glutathione S-transferase, expressed in E. coli | only a single species is retained efficiently on the beads | 
2 | binds to Ku80 efficiently | GST-Ku70: full length human Ku70 fused to glutathione S-transferase, expressed in E. coli |  | only a single species is retained efficiently on the beads
